Measured values taken from the supplement of paper PMC12042874.
± gives the uncertainty stated by the source.

Experiment: amyloid nucleation score (Sup35N fusion, yeast selection) (log enrichment); library NNK2; higher = more nucleation; inactive = no reads after selection
Outline: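 Libraries of peptides of 20 random codons fused to Sup35N were expressed in psi-negative yeast and induced 24 hours with 100 μM copper sulfate. Selection was 7 days at 30°C on medium lacking adenine and uracil, and plasmid inserts were Illumina-sequenced before and after selection. Nucleation score is the DiMSum log enrichment of output over input reads, centred on the mode score of non-aggregating sequences, and sequences with under 100 input reads were left out.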

Substance	amyloid nucleation score
NLSCNLFVSFWYGW	4.67 ± 0.068
NLSRRCKIADWSIHCATIHE	-0.235 ± 1.1
NLWFSHDITYHYTYFDRSRA	4.52 ± 0.087
NLWVCFWSDSCFT	8.089 ± 0.045
NLYSLPQEDRSLNDEKGG	0.121 ± 0.49
NLYTYAVKAVSYSMTGVFIS	-0.114 ± 1
NMFRIVASTY	0.598 ± 0.47
NMNLVILDTHN	2.86 ± 0.13
NMRHI	0.75 ± 0.41
NMRRYLIDMKGVEVLGFMCS	inactive
NMYLDVRRSDGICGHIY	-1.28 ± 1
NNATLGQAFSRQ	0.542 ± 0.17
NNGPSKT	0.51 ± 0.54
NNKFLQVSYS	-0.409 ± 0.78
NNLGKEWKNIWGECLRRVAP	4.48 ± 0.079
NNLTKWLNHWRYFRFSSALE	-0.178 ± 0.5
NNMPFCNYEAFNFYNGMSAF	-1.55 ± 1.1
NNRHLSPVVRSY	inactive
NNRSGYEYVIEFRLTSAVHF	2.1 ± 0.13
NNSMLLSDTLLGYRRTGLDC	-0.176 ± 0.3
NNTNIECSWWIYVWSRHNNR	5.99 ± 0.061
NNWYNTYYKSIKASQPRSSR	-0.797 ± 1.1
NPLYEGSFFWGWKFIDFRQH	0.131 ± 1
NPSCTRKVLVYSY	0.359 ± 0.43
NPVRISL	0.214 ± 0.28

Substance	amyloid nucleation score
NPYKLTLPLTSLLLYSIPRA	-0.127 ± 1.1
NPYTCMKTHYNRRNI	3.41 ± 0.15
NQLDTNSIMLVFLSNMMLGV	3.81 ± 0.056
NQNCLHTTCVCSRIVSDAAV	6.483 ± 0.038
NQSESFHGLDHFTRNHGGCR	inactive
NQTGSRYRVFGNFHVTACFV	0.838 ± 0.18
NQYLSMRTAHSGEVYQPLVF	0.859 ± 0.8
NRDVVKKLPGPSSFVMT	-0.552 ± 0.44
NRFMN	-0.3 ± 0.46
NRFYIWRSDRNYTLVACRSK	-0.237 ± 0.79
NRGSGSAGMVSLLNNSWRWA	1.48 ± 0.43
NRGWSFKLQWHYSLSYTS	4 ± 0.084
NRKEQVVPLHVRSPI	1.13 ± 0.17
NRLERMLLTDTDVSEKGSLG	-0.204 ± 0.54
NRLYSNRGQLNSLCISWFSG	inactive
NRRLRHIWRNNSLTSKN	-0.279 ± 0.25
NRVVHFISIFGFMNS	3.6 ± 0.098
NSAIVLHTSYIHFVFYSVFY	-0.403 ± 0.63
NSCSWDSIITLVVQWLARQH	6.342 ± 0.039
NSFRISGLVDLVNNLSGYLS	-1.34 ± 0.61
NSIAYPACLNKWGWIKFSSY	-1.41 ± 0.29
NSIVWGIHGFVLTLVFFTCF	-0.849 ± 1
NSLHSDSVLIKERDADKSTR	1.73 ± 0.14
NSLVYCKKPSLPFHHGCK	-0.032 ± 0.42
NSLYRGRRHRAYDINVSFVK	-0.392 ± 0.48

Substance	amyloid nucleation score
NSRQYSVMIVQLIPCCQLIP	0.033 ± 0.6
NSRTGTLREVHYLPDST	5.1 ± 0.054
NSSSYVDFGTICMDSIWMS	0.041 ± 0.53
NSWFLYRCKFVLRHSYVN	inactive
NSYSGAVLT	-0.464 ± 1.1
NTANKFSLFKTGMVWVSFFT	2.88 ± 0.099
NTEEDDKRVRMGELVVEYSN	1.36 ± 0.17
NTGFTLMGCWPMYYCWSFSW	-0.073 ± 1
NTLDSGPNGGWLISTY	inactive
NTLTTFVIGGCCLRFEASYM	10.52 ± 0.077
NTLVSVYEYFSMWGRSCRWS	0.141 ± 0.61
NTRNDWQS	2.13 ± 0.15
NTSMNCRKVMYDMNIYNLSK	3.49 ± 0.11
NTSQDG	5.15 ± 0.087
NVDLFWQWVYVYWRGARVEF	0.075 ± 0.43
NVFTNTLVN	8.667 ± 0.081
NVLLKNLESPIFYRDMTTL	-0.252 ± 0.76
NVLQLDPFFAYSVRCILGSE	inactive
NVRDYRIFDL	-0.877 ± 0.78
NVRIVYRPAGPFG	-0.347 ± 0.39
NVRVRLET	0.027 ± 0.27
NVSGMFISMLIFRIMHHGQC	5.11 ± 0.055
NVVGRYKSSDSLTYARWGWR	-0.064 ± 0.34
NVVIRNRFWMNSGRARISAY	-0.428 ± 0.49
NWKANYEFVRLIVVLLSSRR	0.202 ± 0.64

Substance	amyloid nucleation score
NWLCRWWQGWNLT	0.739 ± 0.28
NWPMGGHVYKHRVSHSG	0.095 ± 0.53
NWQVPKVFQVLNYA	0.054 ± 0.79
NWRTCLALNCLTDPAKYLIN	-0.725 ± 0.76
NWSGMPLPFLTFRKRFVEV	-0.998 ± 1
NWVLVVGSSWEFLSGSASGG	2.18 ± 0.17
NWVMVLGLGVCKSIWLLPMV	-0.572 ± 0.76
NWWESRAFGWYDSLSIFSYT	-0.469 ± 1.1
NYCMRGVASIG	-0.475 ± 0.45
NYCNDGVGCYS	4.82 ± 0.067
NYFSTDMGFCLRDTYCRCEI	4.68 ± 0.089
NYITSSVCFCCSDPMYTPSR	8.552 ± 0.031
NYLTQCSRSFNFARVDF	-0.003 ± 0.56
NYREMLWSDIRVVS	0.004 ± 1.1
NYSRL	-0.099 ± 0.26
NYVCSWMLRFSVGRSQIPAV	-0.924 ± 0.76
NYWRDGQNDLGWLSLANFFK	inactive
NYYQR	0.025 ± 1.1
PACTLESYRSNNFDGLFMTT	-0.609 ± 0.76
PALCVNAVTKIDRNNCYDNG	3.92 ± 0.064
PALQCLSHRAIA	0.222 ± 0.62
PASISLNFS	1.58 ± 0.22
PAVWVN	-0.34 ± 0.56
PCENLVCEII	inactive
PCGLIV	0.22 ± 0.63

Substance	amyloid nucleation score
PCPSISGLFASAYPITRLSL	-0.347 ± 0.24
PCTRS	0.414 ± 0.31
PDAIVSGVEHAKGTSDAALS	-0.15 ± 0.28
PDDLYCNPEGSLYQSIW	inactive
PDGTVYDGYSFCSVS	-0.615 ± 0.63
PDPVPM	0.632 ± 0.31
PDVTGKELHF	3.42 ± 0.071
PFAWANKYTIQPINPYRGAA	-0.552 ± 0.41
PFCCLWFGLMHSSGVFRFMG	inactive
PFDFAGA	2.91 ± 0.087
PFLQLCREAIFCLSHDGMLK	-0.575 ± 0.28
PFLVLSWDRCN	-0.288 ± 1.1
PFRSS	-0.415 ± 0.36
PFSFRLSGINSPPVISVA	-1.16 ± 0.41
PFVNVM	-0.047 ± 0.38
PGCHEVSKF	-1.14 ± 0.47
PGCHWISASCGDVLDKGNTG	0.501 ± 0.62
PGCSIDWILYRRTAYGTISD	-0.619 ± 0.36
PGMPARVHTCLSAMTYNFMC	-0.901 ± 0.44
PGNCRSFCRS	0.695 ± 0.47
PGPAKVANCGWCTYTGGTSH	1.12 ± 0.45
PGRLKCGNSRYFWYFDMRHV	inactive
PGSVTGMLWSGTFEVRYLGL	0.101 ± 0.26
PGYPVTFLRRDAYAVREFEF	-0.1 ± 1
PGYSVVIWELSEEGTFYKRK	inactive

Substance	amyloid nucleation score
PHCCCRTSHLSPLNQRDKGS	0.11 ± 0.77
PHCRSLETH	-0.083 ± 0.33
PHLFFDTFV	3.98 ± 0.087
PICHLRGGSISRRSNFIQGC	-1.12 ± 0.76
PICLPVNMLVFKSMNSN	2.28 ± 0.073
PIHNNKHGCFSSERSSFHKM	-1.6 ± 0.75
PISNAYCMGTNRSLRIGIRC	0.641 ± 0.21
PISTSFYRMSILEYGSR	-0.529 ± 0.64
PITCMLQ	0.398 ± 0.35
PKPTYTP	0.292 ± 0.38
PKVVPMISRIAVPL	-0.788 ± 0.76
PKWIPYSRRWPWAYIF	-1.2 ± 0.48
PLCRRLVLLFRIFYNSRN	-1.46 ± 1.1
PLRVRNNGGTVDKFLLRVFE	0.489 ± 0.4
PLSGWYQYIRDGVLSVWLSV	0.713 ± 0.74
PLVLSFFRAIYSYYCNWKTC	-0.649 ± 0.64
PLYSPRVCFFGYAPKVCITH	-0.724 ± 0.4
PMCISLHVTTKGAMFNRGCF	7.18 ± 0.057
PMFVSLVKFTYWSCTVFLGA	-0.582 ± 0.38
PMFYGCGPKLCDYYMNVLFV	2.85 ± 0.12
PMICEHAGHSGWH	1.11 ± 0.22
PMSFTLNRRQRRLHMLRTNN	0.854 ± 0.43
PNERFVSTLWCRDVCDPWSW	0.798 ± 0.51
PNRKSYLAYNMDSPT	-0.32 ± 0.24
PNSRGLSQVNLSFVENRRWS	3.84 ± 0.044

Substance	amyloid nucleation score
PPRYARFKSDLHSLHAVFGN	5.57 ± 0.061
PQNSIPCFAIFTWAWSMKKL	inactive
PRDNSQVLILLNW	5.424 ± 0.041
PREFGRLL	-0.757 ± 0.35
PRFAYCSSIANKMMGVG	2.36 ± 0.18
PRLPTQTITK	1.53 ± 0.16
PRMSTMTTKCGKLKNGKYRR	0.549 ± 0.51
PRPRWRYCFACRLAVFGTVG	6.83 ± 0.036
PRSGSYYTFF	-0.672 ± 1.1
PRSGVSAKQSCAWNVRDGDR	0.566 ± 0.39
PSFMLHTCLFSHGYYILCTG	0.005 ± 0.3
PSFSFVMTLVNFRPDFLSMH	-1.2 ± 0.78
PSFTLMDVFRI	0.701 ± 0.26
PSHSRMRIMNSTYSSFLLKV	0.214 ± 0.18
PSNLKFKYSCFLLNKCMGVR	0.153 ± 0.43
PSSYGWCMLFLVWDIQSTL	-0.829 ± 1
PSYFRNRIRLSRVGTNGYTR	-0.693 ± 1.1
PSYMACSA	-0.187 ± 0.56
PTRCRVSYKRLRCSQLSLQL	-0.012 ± 0.79
PTRVKIFFQRMCGVVAVGWS	1.42 ± 0.39
PTSDALLKCSAPFCSVRPVP	0.138 ± 0.76
PVCFGIEVYDVRFVASNVPG	0.313 ± 0.48
